Assay results taken from article PMC12140327, “Structural and Biochemical Characterization of a Widespread Enterobacterial Peroxidase Encapsulin” (Advanced Science, 2025).
Values joined by “and” are separate entries in the source; they are usually repeats but may differ in a detail not shown here. Identical values can stand only once.

Key:
[1] = biological target: free His6-tagged Dye-decolorizing peroxidase (DyP); assay: SEC; Superdex S-200, 150 mM NaCl, 20 mM Tris pH 7.5; heme followed by absorption at 404 nm
[2] = biological target: free His6-tagged Dye-decolorizing peroxidase (DyP); assay: cryo-EM structure; purified free DyP, 0.5 mg/mL in 150 mM NaCl, 20 mM Tris pH 7.5; D3 symmetry imposed
EncDyP [3] = biological target: T1, EncDyP (Escherichia coli, UniProt A0A5C9AJY8); assay: ABTS oxidation at […] nm, plate reader; type: biochemical; details: H2O2 as co-substrate; 50 mM phosphate citrate pH 4.6-7.6; room temperature
T1 construct: gene FPI65_30880; DyP-loaded T=1 encapsulin shell (60 Enc, about 3-5 DyP hexamers per shell); staggered co-expression in E. coli BL21(DE3), DyP in pCDFDuet-1, Enc in pBAD/HisA; no tag stated; DyP C-terminal residue K348; with Type 1 encapsulin shell protein

[4] = biological target: encapsulin shell protein (Enc) of the enterobacterial DyP encapsulin operon (E. coli); assay: cryo-EM 2D class averages after shell subtraction; purified EncDyP from a two-gene operon under the T7 promoter
[5] = biological target: encapsulin shell protein (Enc) of the enterobacterial DyP encapsulin operon (E. coli); assay: cryo-EM 2D class averages after shell subtraction; purified EncDyP from staggered expression of DyP (PT7) and Enc (PBAD)
EncDyP [6] = biological target: T1, EncDyP; assay: in-gel peroxidase activity stain (native PAGE, ferricyanide); type: biochemical; details: H2O2 0.003%; DAB in Tris-saline pH 7.5
[7] = biological target: encapsulin shell protein (Enc) of the enterobacterial DyP encapsulin operon (E. coli); assay: cryo-EM structure; purified EncDyP from staggered co-expression, 2.8 mg/mL in 150 mM NaCl, 20 mM Tris pH 7.5; icosahedral symmetry imposed

“free His6-tagged Dye-decolorizing peroxidase (DyP) (enzyme)” gave a stoichiometry N [1] of 6 and a stoichiometry N [2] of 6.
In the case of `CCn1c(=NN=c2sc3cc(S(=O)(=O)O)ccc3n2CC)sc2cc(S(=O)(=O)O)ccc21` [ABTS], the “ABTS oxidation at 420 nm, plate reader” value (EncDyP [3]) is reported as “Peroxidase activity increased at a comparable rate for both free and encapsulated DyP”.
In the case of “Dye-decolorizing peroxidase (DyP) cargo, co-expressed with Enc and encapsulated (enzyme)”, the DyP hexamers per shell (hexamer per shell) [4] is reported as < 1 and the DyP hexamers per shell (DyP hexamers per shell) [5] is reported as 3 and 5.
In the case of `Nc1ccc(-c2ccc(N)c(N)c2)cc1N` [DAB], the “in-gel peroxidase activity stain (native PAGE, ferricyanide)” value (EncDyP [6]) is reported as “in‐gel peroxidase activity staining using ferricyanide which confirmed the encapsulation of catalytically active DyP”.
“encapsulin shell protein (Enc) of the enterobacterial DyP encapsulin operon (natural protein)” gave a stoichiometry N [7] of 60.
